How the values were obtained:
[1] = biological target: arsenite oxidase (Aio) from Rhizobium sp. str. NT-26 with the AioB-F108A substitution (Rhizobium sp. str. NT-26); experiment: ITC; 750 μM reduced cytochrome c in the syringe injected (1.5 or 2 μL) into 75 μM reduced Aio in the cell; 50 mM Tris-HCl (pH 8), no NaCl, 25 °C; 1:1 binding fit; three enzyme preparations
[2] = biological target: arsenite oxidase (Aio) from Rhizobium sp. str. NT-26, wild type (Rhizobium sp. str. NT-26); experiment: as above
[3] = biological target: arsenite oxidase (Aio) from Rhizobium sp. str. NT-26, wild type (Rhizobium sp. str. NT-26)

Kd [1]: 7.8 µM | dH (kcal mol^(− 1)) [1]: 3 | stoichiometry N [1]: 0.82 | Kd [2]: 2.3 µM | dH (kcal mol^(− 1)) [2]: 6 | stoichiometry N [2]: 0.85 | KM for cytochrome c, steady-state kinetics of Aio with 2.5 mM arsenite and 0.5-10 μM cytochrome c [3]: 1 µM
Substance: horse heart cytochrome c (from UniProt P00004 1-105) (natural protein)
